PMC7859635, “The “C3aR Antagonist” SB290157 is a Partial C5aR2 Agonist” (Frontiers in Pharmacology, 2021)

How the values were obtained:
C5aR2 = target: T1, C5aR2 (Homo sapiens, UniProt Q9P296); assay: BRET β-arrestin […] recruitment to C5aR2 in transfected HEK293 cells (partial agonist); assay type: cell-based
T1 construct: human C5aR2-Venus

[1] = target: human C3aR on Chinese hamster ovary cells stably expressing C3aR (CHO-C3aR) (human) (UniProt Q16581)
[2] = target: human C3aR of human monocyte-derived macrophages (HMDMs) (human (endogenous in HMDMs)) (UniProt Q16581)
Sequence of human C3aR of human monocyte-derived macrophages (HMDMs) (human (endogenous in HMDMs)) (Q16581 whole entry): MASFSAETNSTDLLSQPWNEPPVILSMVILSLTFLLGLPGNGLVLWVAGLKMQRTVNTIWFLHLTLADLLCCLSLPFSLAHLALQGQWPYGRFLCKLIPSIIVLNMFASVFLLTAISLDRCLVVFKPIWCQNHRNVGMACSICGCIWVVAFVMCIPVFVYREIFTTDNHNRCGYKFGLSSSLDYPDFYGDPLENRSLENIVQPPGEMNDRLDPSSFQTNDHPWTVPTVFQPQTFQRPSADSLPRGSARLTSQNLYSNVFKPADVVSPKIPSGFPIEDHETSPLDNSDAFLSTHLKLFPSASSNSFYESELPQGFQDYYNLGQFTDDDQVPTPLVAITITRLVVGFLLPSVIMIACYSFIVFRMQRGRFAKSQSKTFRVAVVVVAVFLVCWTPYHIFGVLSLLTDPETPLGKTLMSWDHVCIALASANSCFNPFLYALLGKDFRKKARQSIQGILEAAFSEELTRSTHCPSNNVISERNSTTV

Sequence of purified human C3a (P01024 672-748): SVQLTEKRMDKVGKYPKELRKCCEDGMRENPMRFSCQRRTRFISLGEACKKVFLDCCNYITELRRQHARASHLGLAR
Sequence of human C3aR on Chinese hamster ovary cells stably expressing C3aR (CHO-C3aR) (human) (Q16581 whole entry): as the sequence (Q16581 whole entry) above
T1 sequence (Q9P296 whole entry): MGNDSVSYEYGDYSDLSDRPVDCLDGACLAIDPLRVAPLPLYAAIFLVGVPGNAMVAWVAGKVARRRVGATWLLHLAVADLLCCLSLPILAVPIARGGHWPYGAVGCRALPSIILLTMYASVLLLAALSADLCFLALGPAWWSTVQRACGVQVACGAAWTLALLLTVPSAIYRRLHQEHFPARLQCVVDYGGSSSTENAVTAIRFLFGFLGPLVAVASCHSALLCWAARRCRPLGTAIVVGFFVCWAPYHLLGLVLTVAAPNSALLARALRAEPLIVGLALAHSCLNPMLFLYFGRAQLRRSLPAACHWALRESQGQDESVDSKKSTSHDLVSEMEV

Row | EC50 (C5aR2) [nM] | phosphorylation of ERK1/2 in CHO-C3aR cells (AlphaLISA, 10 min), EC50 [1] [nM] | phosphorylation of ERK1/2 in HMDMs (AlphaLISA, 10 min), EC50 [2] [nM] | Molecule
1 | 16100 |  |  | N=C(N)NCCC[C@H](NC(=O)COCC(c1ccccc1)c1ccccc1)C(=O)O [SB290157]
2 |  | 0.39 | 0.21 | purified human C3a (from UniProt P01024 672-748) (ligand)
